Measurements published in patent publication US20250295734A1, “ANTICOAGULANT PROTEINS AND THEIR USE FOR TREATING DISEASES ASSOCIATED WITH THE ACTIVATION OF NEUTROPHILS” (BIOXODES, priority 2018, published 2025).
Where “and” joins values, the source holds several entries; their conditions need not be identical. Equal entries are not always repeated. Entries after “also recorded” stand apart in the source; their conditions may differ.

Legend:
intrinsic pathway = settings: in vitro; dose-dependent; cited from earlier work
plasmin = plasmin (Homo sapiens, UniProt P00747); settings: cited from earlier work
plasmin, sequence (P00747 97-580 limits assumed, species assumed): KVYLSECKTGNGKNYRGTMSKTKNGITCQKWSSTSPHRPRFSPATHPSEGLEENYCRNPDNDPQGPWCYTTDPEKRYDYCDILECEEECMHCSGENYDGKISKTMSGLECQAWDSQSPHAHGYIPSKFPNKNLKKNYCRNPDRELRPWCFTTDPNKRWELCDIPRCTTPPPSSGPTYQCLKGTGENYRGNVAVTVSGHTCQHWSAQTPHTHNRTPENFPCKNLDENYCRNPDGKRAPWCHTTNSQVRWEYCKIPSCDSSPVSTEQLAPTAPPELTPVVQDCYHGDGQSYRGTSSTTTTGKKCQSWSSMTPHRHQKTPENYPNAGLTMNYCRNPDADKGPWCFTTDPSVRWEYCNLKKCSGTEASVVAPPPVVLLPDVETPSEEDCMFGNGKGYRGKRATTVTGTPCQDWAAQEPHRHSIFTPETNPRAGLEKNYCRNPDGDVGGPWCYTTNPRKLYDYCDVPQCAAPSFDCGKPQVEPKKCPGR
plasmin, sequence (P00747 581-810 limits assumed, species assumed): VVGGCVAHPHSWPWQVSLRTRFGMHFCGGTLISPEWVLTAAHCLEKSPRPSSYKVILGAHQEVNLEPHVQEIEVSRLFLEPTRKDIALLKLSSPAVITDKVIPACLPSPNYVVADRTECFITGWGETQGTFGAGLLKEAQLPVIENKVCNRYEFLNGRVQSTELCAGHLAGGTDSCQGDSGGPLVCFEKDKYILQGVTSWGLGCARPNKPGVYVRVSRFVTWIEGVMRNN

FXII zymogen = target: T1, FXII zymogen (Homo sapiens, UniProt P00748); settings: cited from earlier work
T1 sequence (P00748 20-615): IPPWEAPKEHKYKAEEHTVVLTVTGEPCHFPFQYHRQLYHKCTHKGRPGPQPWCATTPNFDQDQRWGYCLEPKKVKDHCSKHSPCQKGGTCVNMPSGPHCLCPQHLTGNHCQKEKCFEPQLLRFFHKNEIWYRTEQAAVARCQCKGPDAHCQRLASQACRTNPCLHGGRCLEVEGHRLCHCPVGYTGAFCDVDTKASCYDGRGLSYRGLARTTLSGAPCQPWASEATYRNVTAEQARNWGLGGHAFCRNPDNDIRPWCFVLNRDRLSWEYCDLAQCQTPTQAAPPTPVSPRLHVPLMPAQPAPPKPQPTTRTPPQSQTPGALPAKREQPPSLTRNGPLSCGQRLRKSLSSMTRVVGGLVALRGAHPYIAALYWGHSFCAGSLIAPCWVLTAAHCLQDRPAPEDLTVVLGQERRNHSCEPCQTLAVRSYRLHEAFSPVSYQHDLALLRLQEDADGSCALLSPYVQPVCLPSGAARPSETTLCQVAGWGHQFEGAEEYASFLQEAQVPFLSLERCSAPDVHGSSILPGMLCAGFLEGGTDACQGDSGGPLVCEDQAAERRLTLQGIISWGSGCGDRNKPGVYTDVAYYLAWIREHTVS

Factor XIa = Factor XIa (Homo sapiens, UniProt P03951); settings: cited from earlier work
Factor XIa, sequence (P03951 19-387 limits assumed): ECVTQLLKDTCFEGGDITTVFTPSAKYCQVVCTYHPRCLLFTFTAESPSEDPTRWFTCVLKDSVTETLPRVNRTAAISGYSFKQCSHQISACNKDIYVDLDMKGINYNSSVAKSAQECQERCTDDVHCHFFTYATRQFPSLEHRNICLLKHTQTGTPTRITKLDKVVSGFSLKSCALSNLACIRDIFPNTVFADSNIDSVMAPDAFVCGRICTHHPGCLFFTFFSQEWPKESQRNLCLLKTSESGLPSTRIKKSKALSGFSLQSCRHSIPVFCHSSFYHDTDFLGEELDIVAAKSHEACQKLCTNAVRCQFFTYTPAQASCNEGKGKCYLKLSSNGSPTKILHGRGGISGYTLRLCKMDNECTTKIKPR
Factor XIa, sequence (P03951 388-625 limits assumed): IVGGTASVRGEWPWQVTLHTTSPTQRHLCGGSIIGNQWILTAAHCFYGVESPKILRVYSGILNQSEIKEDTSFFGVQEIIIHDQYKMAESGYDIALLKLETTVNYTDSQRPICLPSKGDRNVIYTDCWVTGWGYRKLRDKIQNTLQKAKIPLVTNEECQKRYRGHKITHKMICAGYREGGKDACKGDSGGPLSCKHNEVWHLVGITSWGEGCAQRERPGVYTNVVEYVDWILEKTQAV

[1] = system: neutrophils isolated from the bone marrow of femurs of mice; assay: In vitro NETosis assay; type: cell-based, mice (C57BL/6); settings: PMNs primed with TNFα, activated with PAF
Method: Neutrophils were isolated from the bone marrow of femurs of mice (C57BL/6) as previously described (Hu 2012) using FR-1-coupled magnetic beads (anti-Ly6G Microbead Kit, Miltenyi Biotec).
Cells were harvested, centrifugated and incubated during 30 min with or without 2 ng/ml of TNFα in Hanks solution (Gibco). Neutrophils were seeded on slides coated with poly-L-lysine and incubated at 37° C. for 1 h in Hanks solution. Next, neutrophils were activated with or without 25 μM of platelet-activating factor (PAF)±Ir-CPI (0.65 or 2 μM) in Hanks solution (3 h at 37° C.). NET formation was assessed by immunofluorescence (fluorescent microscope from Leica) after fixation of neutrophils with 4% PAF (paraformaldehyde) and fluorescent labelling of citrullinated histones (H3 antibody) and nuclei (Hoechst). Processing and analysis of images was performed using the FIJI software.
Percentage of NETosis (median) was presented for 5 independent experiments. A Wilcoxon test was used for statistical analysis (ns: not significant; *p<0.05; **p<0.01; ***p<0.001). […]

[2] = Distribution and elimination of Ir-CPI in the mice; type: in vivo
Method: Ir-CPI was administered intravenously as a bolus (20.5 mg/kg) immediately followed by a continuous infusion at a rate of 3.7 mg/kg/h (see Table 1 below). Due to fast distribution and elimination of Ir-CPI in the mice (t1/2α=14 min and t1/2β=236 min), the combination of the bolus and the infusion was chosen in order to maintain a constant Ir-CPI concentration into the blood.

[3] = system: venous thrombus formation; settings: dose-dependent; cited from earlier work
human washed platelets = assay: In vitro platelet aggregation assay; type: cell-based
Method: Blood from healthy human donors, who had not taken anti-platelet agents within the 15 days prior to collection, was collected in citrated tubes and centrifuged for 13 min at 200 g. The platelet-rich plasma was collected and centrifuged for 13 min at 900 g in Tyrode buffer (138 mM NaCl, 2.9 mM KCl, 12 mM NaHCO3, 5.5 mM glucose, 1.8 mM CaCl2 and 0.4 mM MgCl2, pH 7.4) containing 0.2% BSA, apyrase 0.02 U/mL and PGI2 500 nM. Washed platelets were resuspended in the Tyrode/BSA 0.2%/apyrase/PGI2 solution and centrifuged at 900 g for 13 min. Platelets were resuspended in a Tyrode/BSA 0.2% solution at a concentration of 3.10^8 platelets/mL. Platelets were kept at 37° C. for 30 min in a solution containing […]. Next, platelets were incubated at 37° C. under agitation for 5 to 10 minutes in an aggregometer APACT 4004 with ADP (adenosine diphosphate), TRAP (Thrombin Receptor-Activating Peptide) and/or Ir-CPI.
The effect of Ir-CPI on platelet aggregation was assessed in vitro by using isolated human washed platelets (n=1).

[4] = Ir-CPI 500 μg/100 μL injected alone and then TRAP 20 μM at about 230 sec
[5] = TRAP 20 μM + Ir-CPI 500 μg/100 μL injected together
[6] = agent alone (TRAP 20 μM, ADP 20 μM or Ir-CPI 500 μg/100 μL), n=1

B1: Ir-CPI: Ixodes ricinus salivary gland polypeptide, contact phase inhibitor, MW=7660 Da; sequence SEQ ID NO: 1 or SEQ ID NO: 2 (protein)
chain: ANHKGRGRPAKCKLPPDDGPCRARIPSYYFDRKTKTCKEFMYGGCEGNENNFENITTCQEECRAKKV
- activated Partial Thromboplastin Time (aPTT) (intrinsic pathway): prolong
- binding to plasmin (plasmin): binds
- binding to FXII zymogen (FXII zymogen): but not to their zymogen forms; also recorded: unable to bind directly
- activation of Factor XII by Factor XIa (Factor XIa): inhibit activation
- percentage of NET formation ([1]; Ir-CPI 0.65 μM, *p<0.05 vs TNFα and PAF): significant reduction
- percentage of NET formation ([1]; Ir-CPI 2 μM, ***p<0.001 vs TNFα and PAF): significant reduction
- t1/2α [2]: 0.233 h
- t1/2β [2]: 3.93 h
- venous thrombus formation [3]: reduces venous thrombus formation
- Aggregation Latency (human washed platelets; [4]): 231.2 s
- Aggregation Max (human washed platelets; [4]): 73.5%
- Aggregation Slope (human washed platelets; [4]): 31.1 %/min
- activation of platelet aggregation (human washed platelets; Ir-CPI alone added to washed platelets): did not activate platelet aggregation
- effect on TRAP-induced platelet aggregation (human washed platelets; Ir-CPI and TRAP, compared to TRAP alone): did not significantly modify platelet aggregation; also recorded: does not inhibit platelet aggregation
- Aggregation Latency (human washed platelets; [5]): 98.6 s
- Aggregation Max (human washed platelets; [5]): 71.7% and 71.8%
- Aggregation Slope (human washed platelets; [5]): 35.1 %/min
- Aggregation Latency (human washed platelets; [6]): 70.0 s
- Aggregation Max (human washed platelets; [6]): 4.1%
- Aggregation Slope (human washed platelets; [6]): 16.2 %/min
